Results as given in US20260193315A1 (FBD BIOLOGICS, published 2026).
Where a chain is given by its changes, count along the chain named.

B1: 1D2 (ligand)
4-1BBL variant: ACPWAVSGARASPGSAASPRLREGPELSPDDPAGLLDLRQGMFAQLVAQNVLLIDGPLSWYEDPGLAGVSLTGGLSYKEDTKELVVAKAGVYYVFFQLELRRVVAGTGSGSVSLALHLQPLRSAAGAAALALTVDLPPASSEARNSAFGFQGRLLHLSAGQRLGVHLHTEARARHALQLTQGATVLGLFRVTPEIPAGLPSPRSE
notes: also called 4-1BBL variant 1D2 (phagemid clone, bacterial supernatant)
B2: 8E2 (ligand)
4-1BBL variant: B1 4-1BBL variant with E62P, G106F, T107E, A176S, L177W
notes: also called 4-1BBL variant 8E2 (phagemid clone, bacterial supernatant)
B3: 4C2 (ligand)
4-1BBL variant: B1 4-1BBL variant with E62P, T107R, L177W, L179F
notes: also called 4-1BBL variant 4C2 (phagemid clone, bacterial supernatant)
B4: 4E10 (ligand)
4-1BBL variant: B1 4-1BBL variant with E62P, G106R, T107E, L177M
notes: also called 4-1BBL variant 4E10 (phagemid clone, bacterial supernatant)
B5: 5D9 (ligand)
4-1BBL variant: B1 4-1BBL variant with W60F, E62S, L177W, L179M
notes: also called 4-1BBL variant 5D9 (phagemid clone, bacterial supernatant)
B6: 8B10 (ligand)
4-1BBL variant: B1 4-1BBL variant with E62T, T107M, A176S, L177W
notes: also called 4-1BBL variant 8B10 (phagemid clone, bacterial supernatant)

molecular target: T1, 4-1BB (coated on ELISA plate) (UniProt Q07011 24-186, limits assumed); assay: ELISA, binding/expression ratio relative to WT
Protocol: (§1) After centrifugation, culture supernatant was collected for determination of expression and binding activity of the 4-1BBL variants. To determine expression of the 4-1BBL variants, a 96-well plate (flat bottom) was coated with 2 μg/ml anti-His tag antibody overnight. The pre-coated plate was then blocked with 5% milk in PBS at room temperature (RT) for 1 hour. After blocking, 30 μl of bacterial supernatant was added to each well of the plate, and the plate was incubated for 1 hour at RT. After the incubation, anti-c-myc-HRP was added, and the expression level of 4-1BBL variants can be determined by measuring OD450 in a plate reader. To determine binding activity of the 4-1BBL variants, a 96-well plate (flat bottom) was coated with 0.5 μg/ml of 4-1BB overnight. The pre-coated plate was then blocked with 5% milk in PBS at RT for 1 hour. After blocking, 30μ of bacterial supernatant was added to each well of the plate, and the plate was incubated for 1 hour at RT. After the incubation, anti-c-myc-HRP was added, and the 4-1BB-binding activity of 4-1BBL variants can be determined by measuring OD450 in a plate reader.
(§2) The 4-1BB-binding activity was measured using the same methods described above. With respect to 4-1BB-mediated NF-κB reporter activity, a 96-well plate (flat bottom) was coated with 5 μg/ml anti-c-myc antibody at 4° C. overnight. The induced 4-1BBL variant supernatants were added to the pre-coated plate, and the plate was incubated at 37° C. for 2 hours. The above steps were repeated for six times. Afterwards, 1×10⁵/well of transfected NF-κB Jurkat cells expressing 4-1BB was added to the plate, which was then incubated for 5 hours at 37° C. After the incubation, the luminance signal was detected to determine the 4-1BB reporter activity.

Row | Binder | Binding (vs wt)
1 | B1 | 0.38
2 | B2 | 0.12
3 | B3 | 0.38
4 | B4 | 0.6
5 | B5 | 1.01
6 | B6 | 1.52

molecular target: T1, 4-1BB (coated on ELISA plate); assay: ELISA, binding OD450 / expression OD450
Protocol: as §1

Row | Binder | Binding / Expression ratio (25 degrees)
7 | B1 | 0.525
8 | B2 | 0.188
9 | B3 | 0.431
10 | B4 | 0.679
11 | B5 | 1.53
12 | B6 | 1.79

molecular target: T1, 4-1BB (coated on ELISA plate); assay: ELISA, binding OD450 / expression OD450, after 45 °C 30 min
Protocol: as §1

Row | Binder | Binding / Expression ratio (45degrees)
13 | B1 | 0.553
14 | B2 | 0.388
15 | B3 | 0.506
16 | B4 | 0.885
17 | B5 | 0.537
18 | B6 | 0.636

molecular target: 4-1BB on transfected NF-κB Jurkat cells (UniProt Q07011 24-255, limits assumed); assay: cell-based or functional assay
Sequence (Q07011 24-255 limits assumed): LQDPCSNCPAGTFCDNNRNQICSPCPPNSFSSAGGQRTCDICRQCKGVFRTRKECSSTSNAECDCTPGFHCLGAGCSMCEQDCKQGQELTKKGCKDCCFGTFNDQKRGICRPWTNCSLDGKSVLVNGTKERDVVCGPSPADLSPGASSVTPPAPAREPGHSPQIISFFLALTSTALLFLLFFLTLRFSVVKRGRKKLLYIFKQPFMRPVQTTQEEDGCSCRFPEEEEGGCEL

Row | Binder | Reporter (RLU) | Reporter (vs wt) | Reporter/Expression ratio
19 | B1 | 4390 | 0.75 | 2150
20 | B2 | 4880 | 0.9 | 2570
21 | B3 | 3420 | 0.71 | 2040
22 | B4 | 7360 | 2.74 | 7830
23 | B5 | 4780 | 1.48 | 4240
24 | B6 | 8820 | 4.66 | 13300

molecular target: T1, 4-1BB (coated on ELISA plate); assay: ELISA on coated 4-1BB, supernatant, OD450
Protocol: as §1

Row | Binder | Binding (25 °C)
25 | B1 | 1.16
26 | B2 | 0.231
27 | B3 | 0.657
28 | B4 | 1.36
29 | B5 | 1.43
30 | B6 | 1.5

molecular target: T1, 4-1BB (coated on ELISA plate); assay: ELISA on coated 4-1BB, supernatant
Protocol: as §1, §2

Row | Binder | Binding (OD450)
31 | B1 | 1.35
32 | B2 | 0.392
33 | B3 | 1.12
34 | B4 | 0.975
35 | B5 | 1.98
36 | B6 | 1.75

molecular target: T1, 4-1BB (coated on ELISA plate); assay: ELISA on coated 4-1BB, supernatant after 45 °C 30 min, OD450
Protocol: as §1

Row | Binder | Binding (45 °C)
37 | B1 | 0.803
38 | B2 | 0.309
39 | B3 | 0.823
40 | B4 | 1.25
41 | B5 | 0.205
42 | B6 | 0.182

molecular target: T1, 4-1BB (coated on ELISA plate); assay: ELISA, binding OD450 / expression OD450; remark: another data set of the same source
Protocol: as §1, §2

Row | Binder | Binding/Expression ratio
43 | B1 | 0.66
44 | B2 | 0.21
45 | B3 | 0.67
46 | B4 | 1.04
47 | B5 | 1.75
48 | B6 | 2.65
